From PMC8026773

Molecular target: human TREM2 Ig domain (aa 19-134), wild type, biotinylated on a BirA tag (human) (UniProt Q9NZC2)
Test: BLI

human TREM2 Ig domain (aa 19-134), wild type, biotinylated on a BirA tag (human), sequence (Q9NZC2 19-134): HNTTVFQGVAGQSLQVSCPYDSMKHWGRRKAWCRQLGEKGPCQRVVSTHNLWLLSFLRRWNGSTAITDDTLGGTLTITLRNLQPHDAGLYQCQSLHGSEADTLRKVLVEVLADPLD

Q: For “ApoE3 1-238 (C-term deletion) (domain or fragment)”, which Kd is on record?
A: 696 nM
